Two sequences from PMC7647119 can be followed below.

For this data set, the target named is T1, MADS29-His (Oryza sativa) (UniProt Q6H711).
T1 sequence: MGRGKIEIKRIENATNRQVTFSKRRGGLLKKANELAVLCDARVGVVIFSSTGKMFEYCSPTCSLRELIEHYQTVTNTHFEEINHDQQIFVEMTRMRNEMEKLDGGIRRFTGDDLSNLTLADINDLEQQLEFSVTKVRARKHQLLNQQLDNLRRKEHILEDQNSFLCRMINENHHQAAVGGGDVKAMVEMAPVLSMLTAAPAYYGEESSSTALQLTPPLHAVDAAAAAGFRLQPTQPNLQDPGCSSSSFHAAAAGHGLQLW
In words: EMSA. Particulars: LightShift Chemiluminescent EMSA Kit per manufacturer; buffer, salt, pH and temperature not stated.

As to “TCTATAGACTAGTCAGCATTTTTTTTAGCTCCATATTTGGATTTGTCAACTTCAGAAAAG (double strand) [POsAsp1 -770 CArG probe]”, the binding entry is recorded as “binds”.
As to “ATTTTGCTCATTTGGTATAGATCTTTCTTACATATATAAGACTGATCTCTATAGTGGTGA (double strand) [POsAsp1 -1412 CArG probe]”, the binding result is listed as “binds”.
